Patent US20150037328A1 (Pfizer, published 2015)

B1: h3G10.A57 VH / h3G10.2.72 VL Fab (Fab, V domains shown)
VH: EVQLVESGGGLVQPGGSLRLSCAASGFTFSDYYMSWVRQAPGKGLEWVGFIRHKANFYTTEYSTSVKGRFTISRDDSKNSLYLQMNSLKTEDTAVYYCARDLPGFAYWGQGTLVTVSS
VL: DIVMTQSPDSLAVSLGERATINCKSSQSLFNSRTRKNYLAWYQQKPGQPPKLLIYWASARESGVPDRFSGSGSGTDFTLTISSLQAEDVAVYYCKQSFRLRTFGGGTKVEIK
notes: Tested as Fab
B2: h3G10.A57 VH / h3G10.A58A VL Fab (Fab, V domains shown)
VH: EVQLVESGGGLVQPGGSLRLSCAASGFTFSDYYMSWVRQAPGKGLEWVGFIRHKANFYTTEYSTSVKGRFTISRDDSKNSLYLQMNSLKTEDTAVYYCARDLPGFAYWGQGTLVTVSS
VL: DIVMTQSPDSLAVSLGERATINCKSSQSLFNSHTRKNYLAWYQQKPGQPPKLLIYWASARGSGVPDRFSGSGSGTDFTLTISSLQAEDVAVYYCKQSFRLRTFGGGTKVEIK
notes: Tested as Fab
B3: humanized anti-CXCR4 antibody h3G10.A57 (antibody, V domains shown)
VH: EVQLVESGGGLVQPGGSLRLSCAASGFTFSDYYMSWVRQAPGKGLEWVGFIRHKANFYTTEYSTSVKGRFTISRDDSKNSLYLQMNSLKTEDTAVYYCARDLPGFAYWGQGTLVTVSS
VL: DIVMTQSPDSLAVSLGERATINCKSSQSLFNSRTRKNYLAWYQQKPGQPPKLLIYWASARESGVPDRFSGSGSGTDFTLTISSLQAEDVAVYYCKQSFNLRTFGGGTKVEIK
B4: humanized anti-CXCR4 antibody h3G10 (antibody, V domains shown)
VH: EVQLVESGGGLVQPGGSLRLSCAASGFTFSDYYMSWVRQAPGKGLEWVGFIRHKANGYTTEYSTSVKGRFTISRDDSKNSLYLQMNSLKTEDTAVYYCARDLPGFAYWGQGTLVTVSS
VL: DIVMTQSPDSLAVSLGERATINCKSSQSLFNSRTRKNYLAWYQQKPGQPPKLLIYWASARESGVPDRFSGSGSGTDFTLTISSLQAEDVAVYYCKQSFNLRTFGGGTKVEIK
B5: h3G10.B44 VH / h3G10.A58A VL Fab (Fab, V domains shown)
VH: EVQLVESGGGLVQPGGSLRLSCAASGFTFSDYYMSWVRQAPGKGLEWVSFIRHKANFYTTEYSTSVKGRFTISRDNSKNTLYLQMNSLRAEDTAVYYCAKDLPGFAYWGQGTLVTVSS
VL: DIVMTQSPDSLAVSLGERATINCKSSQSLFNSHTRKNYLAWYQQKPGQPPKLLIYWASARGSGVPDRFSGSGSGTDFTLTISSLQAEDVAVYYCKQSFRLRTFGGGTKVEIK
notes: Tested as Fab
B6: h3G10.1.91 VH / h3G10.A58B VL Fab (Fab, V domains shown)
VH: EVQLVESGGGLVQPGGSLRLSCAASGFTFSDYYMSWVRQAPGKGLEWVGFIRHKANFETTEYSTSVKGRFTISRDDSKNSLYLQMNSLKTEDTAVYYCARDLPGFAYWGQGTLVTVSS
VL: DIVMTQSPDSLAVSLGERATINCKSSQSLFNSHTRKNYLAWYQQKPGQPPKLLIYWASARGSGVPDRFSGSGSGTDFTLTISSLQAEDVAVYYCKQSFNLRTFGGGTKVEIK
notes: Tested as Fab
B7: h3G10.A57 VH / h3G10.A58B VL Fab (Fab, V domains shown)
VH: EVQLVESGGGLVQPGGSLRLSCAASGFTFSDYYMSWVRQAPGKGLEWVGFIRHKANFYTTEYSTSVKGRFTISRDDSKNSLYLQMNSLKTEDTAVYYCARDLPGFAYWGQGTLVTVSS
VL: DIVMTQSPDSLAVSLGERATINCKSSQSLFNSHTRKNYLAWYQQKPGQPPKLLIYWASARGSGVPDRFSGSGSGTDFTLTISSLQAEDVAVYYCKQSFNLRTFGGGTKVEIK
notes: Tested as Fab
B8: h3G10.1.91 VH / h3G10.A58A VL Fab (Fab, V domains shown)
VH: EVQLVESGGGLVQPGGSLRLSCAASGFTFSDYYMSWVRQAPGKGLEWVGFIRHKANFETTEYSTSVKGRFTISRDDSKNSLYLQMNSLKTEDTAVYYCARDLPGFAYWGQGTLVTVSS
VL: DIVMTQSPDSLAVSLGERATINCKSSQSLFNSHTRKNYLAWYQQKPGQPPKLLIYWASARGSGVPDRFSGSGSGTDFTLTISSLQAEDVAVYYCKQSFRLRTFGGGTKVEIK
notes: Tested as Fab
B9: h3G10.2.37 VH / h3G10.A58A VL Fab (Fab, V domains shown)
VH: EVQLVESGGGLVQPGGSLRLSCAASGFTFSDYYMSWVRQAPGKGLEWVGFIRHKANFYTREYSTSVKGRFTISRDDSKNSLYLQMNSLKTEDTAVYYCARDLPGFAYWGQGTLVTVSS
VL: DIVMTQSPDSLAVSLGERATINCKSSQSLFNSHTRKNYLAWYQQKPGQPPKLLIYWASARGSGVPDRFSGSGSGTDFTLTISSLQAEDVAVYYCKQSFRLRTFGGGTKVEIK
notes: Tested as Fab
B10: h3G10 VH / h3G10 VL Fab (Fab, V domains shown)
VH: EVQLVESGGGLVQPGGSLRLSCAASGFTFSDYYMSWVRQAPGKGLEWVGFIRHKANGYTTEYSTSVKGRFTISRDDSKNSLYLQMNSLKTEDTAVYYCARDLPGFAYWGQGTLVTVSS
VL: DIVMTQSPDSLAVSLGERATINCKSSQSLFNSRTRKNYLAWYQQKPGQPPKLLIYWASARESGVPDRFSGSGSGTDFTLTISSLQAEDVAVYYCKQSFNLRTFGGGTKVEIK
notes: Tested as Fab; also called h3G10 Fab
B11: h3G10.A57 VH / h3G10.2.25 VL Fab (Fab, V domains shown)
VH: EVQLVESGGGLVQPGGSLRLSCAASGFTFSDYYMSWVRQAPGKGLEWVGFIRHKANFYTTEYSTSVKGRFTISRDDSKNSLYLQMNSLKTEDTAVYYCARDLPGFAYWGQGTLVTVSS
VL: DIVMTQSPDSLAVSLGERATINCRSSQSLFNSRTRKNYLAWYQQKPGQPPKLLIYWASARESGVPDRFSGSGSGTDFTLTISSLQAEDVAVYYCKQSFRLRTFGGGTKVEIK
notes: Tested as Fab
B12: h3G10.1.91 VH / h3G10.2.72 VL Fab (Fab, V domains shown)
VH: EVQLVESGGGLVQPGGSLRLSCAASGFTFSDYYMSWVRQAPGKGLEWVGFIRHKANFETTEYSTSVKGRFTISRDDSKNSLYLQMNSLKTEDTAVYYCARDLPGFAYWGQGTLVTVSS
VL: DIVMTQSPDSLAVSLGERATINCKSSQSLFNSRTRKNYLAWYQQKPGQPPKLLIYWASARESGVPDRFSGSGSGTDFTLTISSLQAEDVAVYYCKQSFRLRTFGGGTKVEIK
notes: Tested as Fab
B13: h3G10.A57 VH / h3G10 VL Fab (Fab, V domains shown)
VH: EVQLVESGGGLVQPGGSLRLSCAASGFTFSDYYMSWVRQAPGKGLEWVGFIRHKANFYTTEYSTSVKGRFTISRDDSKNSLYLQMNSLKTEDTAVYYCARDLPGFAYWGQGTLVTVSS
VL: DIVMTQSPDSLAVSLGERATINCKSSQSLFNSRTRKNYLAWYQQKPGQPPKLLIYWASARESGVPDRFSGSGSGTDFTLTISSLQAEDVAVYYCKQSFNLRTFGGGTKVEIK
notes: Tested as Fab; also called h3G10.A57 VH / h3G10 L
B14: h3G10.2.37 VH / h3G10.2.72 VL Fab (Fab, V domains shown)
VH: EVQLVESGGGLVQPGGSLRLSCAASGFTFSDYYMSWVRQAPGKGLEWVGFIRHKANFYTREYSTSVKGRFTISRDDSKNSLYLQMNSLKTEDTAVYYCARDLPGFAYWGQGTLVTVSS
VL: DIVMTQSPDSLAVSLGERATINCKSSQSLFNSRTRKNYLAWYQQKPGQPPKLLIYWASARESGVPDRFSGSGSGTDFTLTISSLQAEDVAVYYCKQSFRLRTFGGGTKVEIK
notes: Tested as Fab
B15: h3G10.2.37 VH / h3G10.A58B VL Fab (Fab, V domains shown)
VH: EVQLVESGGGLVQPGGSLRLSCAASGFTFSDYYMSWVRQAPGKGLEWVGFIRHKANFYTREYSTSVKGRFTISRDDSKNSLYLQMNSLKTEDTAVYYCARDLPGFAYWGQGTLVTVSS
VL: DIVMTQSPDSLAVSLGERATINCKSSQSLFNSHTRKNYLAWYQQKPGQPPKLLIYWASARGSGVPDRFSGSGSGTDFTLTISSLQAEDVAVYYCKQSFNLRTFGGGTKVEIK
notes: Tested as Fab

Key:
[1] = target: T1, human CXCR4 (chemokine (C-X-C motif) receptor 4) (human, UniProt P61073 1-352); experiment: flow cytometry on HPB-ALL cells, Fab at 2.5 µg/ml
T1 construct: Endogenous on human tumour cell lines (Ramos, HPB-ALL, Raji, Jurkat, MM1.S, RPMI-8226, MOLP-8, MOLT-4) or transfected into CHO-K1 cells (DiscoveRx); also called CXCR4 receptor
T1 sequence (P61073 whole entry): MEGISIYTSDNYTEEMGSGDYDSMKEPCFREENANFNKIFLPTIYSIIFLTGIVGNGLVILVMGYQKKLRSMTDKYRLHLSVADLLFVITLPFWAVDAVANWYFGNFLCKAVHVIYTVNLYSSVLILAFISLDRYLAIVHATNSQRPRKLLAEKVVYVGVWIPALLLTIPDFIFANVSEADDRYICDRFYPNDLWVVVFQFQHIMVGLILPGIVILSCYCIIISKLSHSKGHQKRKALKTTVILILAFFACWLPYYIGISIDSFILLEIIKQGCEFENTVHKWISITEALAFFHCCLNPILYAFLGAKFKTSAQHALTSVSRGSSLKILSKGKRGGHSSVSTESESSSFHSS

[2] = target: T1, human CXCR4 (chemokine (C-X-C motif) …); experiment: flow cytometry on HPB-ALL cells, Fab at 0.25 µg/ml
[3] = target: T1, human CXCR4 (chemokine (C-X-C motif) …); experiment: flow cytometry on HPB-ALL cells, Fab at 0.25 µg/mL
Protocol: Binding of CXCR4 Fabs to CXCR4-expressing cells were measured by flow cytometry on HPB-ALL (Human T cell leukemia) cells. 150,000 HPB-ALL cells were resuspended in 100 uL FACS buffer (1×PBS+0.5% BSA) on 96 well plates. […] After removing the primary antibodies the cells were washed twice with FACS buffer and then resuspended in FACS buffer and 2 uL (3 ug) of 2nd Ab (Alexa Fluor 647-conjugated goat anti-human IgG, F(ab′)2 specific, Jackson ImmunoResearch Laboratories, West Grove Pa.) was then added to each well. The plates were incubated at 4 degree for another 30 min. Fluorescence signals were acquired by cell analyzer LSRII (BD Biosciences, San Jose Calif.).

[4] = target: T2, human CXCR4-enriched lipoparticles (LEV101, Integral Molecular) (human, UniProt P61073 1-352); experiment: biosensor kinetic titration, Fab over captured human CXCR4 lipoparticles
T2 construct: Bought reagent; CXCR4 held in lipoparticles captured by biotinylated WGA on an SA chip; also called Lipoparticles containing CXCR4 proteins
T2 sequence (P61073 whole entry): as above
Protocol: The binding affinity of each Fab was determined using human CXCR4-enriched lipoparticles (LEV101, Integral Molecular, Philadelphia Pa.). Biotinylated WGA (Sigma Aldrich, St. Louis Mo.)) can be coated on the SA chip to facilitate capturing lipoparticles containing CXCR4 proteins. […] J. Mol. Recognit.

[5] = target: T1, human CXCR4 (chemokine (C-X-C motif) …); experiment: cell-based or functional assay

Row | Binder | MFI [1] | MFI [2] | MFI [3] | Kd [4] [nM] | koff [4] [s⁻¹] | kon [4] [M⁻¹ s⁻¹] | t½ [4] [min] | IC50 (M), Calcium Flux Activity (average of 3 experiments) [5] [M]
1 | B1 | 4330 | 1220 | 2770 | 1.12 | 0.0013 | 1.1e+06 | 9 | 
2 | B2 | 7400 | 3610 | 3890 | 0.39 | 0.00063 | 1.6e+06 | 18.2 | 
3 | B3 |  |  |  |  |  |  |  | 1.69e-09
4 | B4 |  |  |  |  |  |  |  | 2e-09
5 | B5 | 9410 | 5120 |  |  |  |  |  | 
6 | B6 |  |  | 4630 | 0.36 | 0.000286 | 803000 | 40.4 | 
7 | B7 |  |  | 3090 | 0.75 | 0.000515 | 688000 | 22.4 | 
8 | B8 |  |  | 5050 | 0.38 | 0.000341 | 908000 | 33.9 | 
9 | B9 |  |  | 4070 | 0.32 | 0.000418 | 1.29e+06 | 27.6 | 
10 | B10 | 2460 | 563 | 1360 | 1.9 | 0.003 | 1.6e+06 | 3.9 | 
11 | B11 | 5000 | 1380 |  |  |  |  |  | 
12 | B12 | 7020 | 2670 | 2350 | 0.33 | 0.00049 | 1.5e+06 | 23.5 | 
13 | B13 | 4060 | 868 | 1340 | 1.22 | 0.00143 | 1.17e+06 | 8.08 | 
14 | B14 | 6240 | 2920 | 2890 | 0.35 | 0.0008 | 2.3e+06 | 14.4 | 
15 | B15 |  |  | 4550 | 0.56 | 0.000449 | 797000 | 25.7 | 
